Changes are numbered by the printed parent chain.

Experimental findings from patent publication US20170326249A1 (Bristol-Myers Squibb, published 2017) are described below.

The target of this assay is T1, Glypican-3 (UniProt P51654 25-559, limits assumed).
T1 construct: also called GPC3
The experiment in a line: Biacore (SPR). (In SPR one partner is held on a chip, and binding of the other changes the refractive index at the surface.)

B1: Antibody C (antibody, human IgG1, kappa, V domains shown)
VH: EVQLVQSGAEVKKPGESLKISCKGSGYSFTRYWIAWVRQMPGKGLEWMGIIFPGDSHTGYSPSFQGQVTISADRSISTAYLQWSSLKASDTAMYYCARTREGYFDYWGQGTLVTVSS
VL: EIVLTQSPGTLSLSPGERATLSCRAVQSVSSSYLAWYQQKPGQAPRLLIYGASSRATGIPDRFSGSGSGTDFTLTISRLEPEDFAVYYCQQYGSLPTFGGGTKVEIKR
notes: Variable-region variant of GPC3.1, IgG1/kappa; also called variant antibody C
Turning to B1, the Kd (commonly the constant that tells how readily two partners part at equilibrium) was found to be 0.9 nM; the off-rate constant (koff) (usually the first-order rate constant of dissociation) was 0.0016 s⁻¹; the kon (as a rule, the second-order rate constant of association) was found to be 1.7e+06 M⁻¹ s⁻¹.

B2: Antibody B (antibody, human IgG1, kappa, V domains shown)
VH: B1 VH with Q65R, R74K
VL: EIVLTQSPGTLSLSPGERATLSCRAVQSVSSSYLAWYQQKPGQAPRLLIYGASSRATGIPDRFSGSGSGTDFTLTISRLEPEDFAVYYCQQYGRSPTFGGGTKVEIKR
notes: Variable-region variant of GPC3.1, IgG1/kappa; also called variant antibody B
As to B2, the affinity, expressed as Kd, was 2.2 nM; the koff amounted to 0.0036 s⁻¹; the kon was determined as 1.7e+06 M⁻¹ s⁻¹.

B3: Antibody A (antibody, human IgG1, kappa, V domains shown)
VH: B1 VH with R31S, S77R, E101Q
VL: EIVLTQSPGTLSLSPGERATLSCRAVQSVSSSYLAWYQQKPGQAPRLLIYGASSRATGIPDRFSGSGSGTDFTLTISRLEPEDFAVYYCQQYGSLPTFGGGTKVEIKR
notes: Variable-region variant of GPC3.1, IgG1/kappa; also called variant antibody A
As to B3, the Kd is 2.7 nM, the koff is 0.0029 s⁻¹ and the kon stood at 1.1e+06 M⁻¹ s⁻¹.
